Reference: publication PMC8177486
Changes are numbered by the printed parent chain. Names and notes keep the numbering of the source.

B1: Nrf2_(1–100) (domain or fragment)
chain: MMDLELPPPGLPSQQDMDLIDILWRQDIDLGVSREVFDFSQRRKEYELEKQKKLEKERQEQLQKEQEKAFFAQLQLDEETGEFLPIQPAQHIQSETSGSA
B2: Nrf2_(34–100) E82A (domain or fragment)
chain: REVFDFSQRRKEYELEKQKKLEKERQEQLQKEQEKAFFAQLQLDEETGAFLPIQPAQHIQSETSGSA
B3: Nrf2_(34–100) F83A (domain or fragment)
chain: B2 chain with A49E, F50A
B4: Nrf2_(34–100) E78A (domain or fragment)
chain: B2 chain with E45A, A49E
B5: Nrf2_(34–100) E79A (domain or fragment)
chain: B2 chain with E46A, A49E
B6: Nrf2_(34–100) wild type (domain or fragment)
chain: B2 chain with A49E
B7: Nrf2_(34–100) T80A (domain or fragment)
chain: B2 chain with T47A, A49E
B8: Nrf2_(34–100) T80S (domain or fragment)
chain: B2 chain with T47S, A49E
B9: Nrf2_(34–100) D77A (domain or fragment)
chain: B2 chain with D44A, A49E

These binders were tested against KEAP1_(312–624), human KEAP1 Kelch repeat domain (human) (UniProt Q14145) (assay: fluorescence polarisation).

Binder | Kd [nM] | KD ratio to wild type (KD^T80S/KD^WT)
B1 | 10 | –
B2 | 22000 | –
B3 | 18 | –
B4 | 25 | –
B5 | 1700 | –
B6 | 10 | –
B7 | 26000 | –
B8 | – | 30
B9 | 4400 | –
